Data on three molecules can be found in patent US20220243196, “[…] METHOD OF APTAMER AND IMMUNOASSAY USING THE APTAMER” (SB BIOSCIENCE CO., LTD., published 2022).

The target of one data set is Ebola NP (Ebola virus, UniProt P18272 P18272:1-739). The data set is described as follows: ELONA.
For another data set, the target named is HIV-1 p24 (Human immunodeficiency virus 1, UniProt P04591 P04591:133-363). Description: ELONA; antibody-antigen-aptamer sandwich with RPA readout.
A further data set concerns the target SARS-CoV-2 NP (SARS-CoV-2, UniProt P0DTC9 P0DTC9:1-419). The data set is described as follows: ELONA.

B1: Ebola NP aptamer (ssDNA)
DNA: GATGTGAGTGACGTGGATCGAGCGGATGTGAAGGCTGAAAGTGGCTTTGGGCGGTCGTAAGTGTCACAGAGCATGCAACAAGACC
Regarding B1, the binding result with Ebola NP was “binds”.

B2: HIV-1 p24 aptamer (ssDNA)
DNA: AGATACTGCCATTCATTGCATCGAGCACGCGACTGATGAGGATGGTCTAGTAGCTGGGGTCGAGTACTAAGCTATGTGTCGA
Take B2: the binding result with HIV-1 p24 is “binds”.

B3: SARS-CoV-2 NP aptamer (ssDNA)
DNA: ATCCAGAGTGACGCAGCAAACCCAAGCAAACTACCTCTATACCCTTCGACCTTCATCATGGACACGGTGGCTTAGT
B3: in the data set with SARS-CoV-2 NP, the binding result is “binds”.
